These results are taken from patent US20230103563A1 (Sanofi, published 2023).

The chains are these.
T1: human IL4 (IL004, Millipore) (human, UniProt P05112 25-153)
T1 construct: Bought protein, used as analyte in SPR; also called interleukin IL4
T1 sequence (looked up): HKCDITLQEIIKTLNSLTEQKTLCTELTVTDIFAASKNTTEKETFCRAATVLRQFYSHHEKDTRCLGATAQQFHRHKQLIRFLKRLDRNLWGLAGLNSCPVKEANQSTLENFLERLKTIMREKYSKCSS

B1: protein variant (1), Diabody-added Split CH2 (diabody split CH2, anti-IL4/anti-IL13) (bispecific antibody)
chain 1: DIVLTQSPASLAVSLGQRATISCRASESVDSYGQSYMHWYQQKAGQPPKLLIYLASNLESGVPARFSGSGSRTDFTLTIDPVQAEDAATYYCQQNAEDSRTFGGGTKLEIKGGGSGGGGQVQLQQSGPELVKPGASVKISCKASGYSFTSYWIHWIKQRPGQGLEWIGMIDPSDGETRLNQRFQGRATLTVDESTSTAYMQLRSPTSEDSAVYYCTRLKEYGNYDSFYFDVWGAGTLVTVSSGGPSVFLFPPKPKDTLMISRTPEVTCVVVDVSHEDPEVKFNWYVDGVEVHN
chain 2: DIQMTQSPASLSVSVGDTITLTCHASQNIDVWLSWFQQKPGNIPKLLIYKASNLHTGVPSRFSGSGSGTGFTLTISSLQPEDIATYYCQQAHSYPFTFGGGTKLEIKGGGSGGGGEVQLKESGPGLVAPGGSLSITCTVSGFSLTDSSINWVRQPPGKGLEWLGMIWGDGRIDYADALKSRLSISKDSSKSQVFLEMTSLRTDDTATYYCARDGYFPYAMDFWGQGTSVTVSSGGGGSGGGGSAKTKPREEQYNSTYRVVSVLTVLHQDWLNGKEYKCKVSNKALPAPIEKTISKAKGQPREHHHHHH
notes: Two chains joined by the disulfide bond of the reassembled IgG1 split CH2 domain
B2: protein variant (7), Diabody Split CH2 (included) ("Splite") (bispecific antibody)
chain 1: DIVLTQSPASLAVSLGQRATISCRASESVDSYGQSYMHWYQQKAGQPPKLLIYLASNLESGVPARFSGSGSRTDFTLTIDPVQAEDAATYYCQQNAEDSRTFGGGTKLEIKGGPSVFLFPPKPKDTLMISRTPEVTCVVVDVSHEDPEVKFNWYVDGVEVHNDIQMTQSPASLSVSVGDTITLTCHASQNIDVWLSWFQQKPGNIPKLLIYKASNLHTGVPSRFSGSGSGTGFTLTISSLQPEDIATYYCQQAHSYPFTFGGGTKLEIK
chain 2: EVQLKESGPGLVAPGGSLSITCTVSGFSLTDSSINWVRQPPGKGLEWLGMIWGDGRIDYADALKSRLSISKDSSKSQVFLEMTSLRTDDTATYYCARDGYFPYAMDFWGQGTSVTVSSGGGGSGGGGSGGGGSAKTKPREEQYNSTYRVVSVLTVLHQDWLNGKEYKCKVSNKALPAPIEKTISKAKGQPREQVQLQQSGPELVKPGASVKISCKASGYSFTSYWIHWIKQRPGQGLEWIGMIDPSDGETRLNQRFQGRATLTVDESTSTAYMQLRSPTSEDSAVYYCTRLKEYGNYDSFYFDVWGAGTLVTVSSHHHHHH
notes: Splite diabody with other linkers than variant (4); also called splite diabody
B3: protein variant (5), Diabody Split CH2 (included) ("Splite") (bispecific antibody)
chain 1: B2 chain 1
chain 2: EVQLKESGPGLVAPGGSLSITCTVSGFSLTDSSINWVRQPPGKGLEWLGMIWGDGRIDYADALKSRLSISKDSSKSQVFLEMTSLRTDDTATYYCARDGYFPYAMDFWGQGTSVTVSSGGGAKTKPREEQYNSTYRVVSVLTVLHQDWLNGKEYKCKVSNKALPAPIEKTISKAKGQPREQVQLQQSGPELVKPGASVKISCKASGYSFTSYWIHWIKQRPGQGLEWIGMIDPSDGETRLNQRFQGRATLTVDESTSTAYMQLRSPTSEDSAVYYCTRLKEYGNYDSFYFDVWGAGTLVTVSSHHHHHH
notes: as for B2
B4: protein variant (6), Diabody Split CH2 (included) ("Splite") (bispecific antibody)
chain 1: DIVLTQSPASLAVSLGQRATISCRASESVDSYGQSYMHWYQQKAGQPPKLLIYLASNLESGVPARFSGSGSRTDFTLTIDPVQAEDAATYYCQQNAEDSRTFGGGTKLEIKGGPSVFLFPPKPKDTLMISRTPEVTCVVVDVSHEDPEVKFNWYVDGVEVHNGGGGSGGGGSGGGGSDIQMTQSPASLSVSVGDTITLTCHASQNIDVWLSWFQQKPGNIPKLLIYKASNLHTGVPSRFSGSGSGTGFTLTISSLQPEDIATYYCQQAHSYPFTFGGGTKLEIK
chain 2: B3 chain 2
notes: as for B2

In the first experiment the target is T1, human IL4 (IL004, Millipore). Description: SPR (Biacore), variant captured with His-capture kit, IL4 as analyte. The procedure: (§1) Binding of antigens to the antibody constructs was measured using surface plasmon resonance (SPR) on a BIAcore 3000 instrument (GE Healthcare) with HBS-EP buffer (GE Healthcare). As antigens human IL4 (IL004, Millipore) and human IL13 (IL012, Millipore) were used. The capture antibody (human antibody capture kit, His capture kit, Fab capture kit, GE Life Sciences) was immobilized via primary amine groups (11000 RU) on a research grade CMS chip (GE Life Sciences) using standard procedures. […] The antigens human IL4 and human IL13 were used as analytes and injected for 240 sec with a dissociation time of 300 sec at a flow rate of 30 μL/min. IL4 and IL13 were used in a dilution series of 0.1 nM to 3 nM and 0.8 nM to 25 nM, respectively. Chip surfaces were regenerated with 2 min injects of the regeneration buffer provided with the capture kit. Sensorgrams were double referenced with a blank chip surface and HBS-EP buffer blanks. Recombinant human neonatal Fc-receptor (FcRn) protein was immobilized via primary amine groups (200 RU) in the sample flow cell compartment of a research grade CMS chip (GE Life Sciences) using standard procedures. The reference flow cell compartment was activated and deactivated without FcRn immobilization to generate a blank chip surface. For the analysis an assay buffer with pH 6.0 was used (150 mM NaCl, 20 mM Na-phosphate, 0.05% surfactant P20, pH6.0). The antibody was used as analyte at 800 nM dilution in assay buffer and injected over reference and sample flow cells for 240 sec with a dissociation time of 300 sec at a flow rate of 30 μL/min. Chip surfaces were regenerated with 2 min injects of HBS-EP buffer at 30 μl/min. Sensorgrams were double referenced with a the blank chip surface and HBS-EP buffer blanks. All data analysis was done using the BIAevaluation software v4.1.
Background: Surface plasmon resonance follows binding to a sensor surface in real time, without labels.
As a reminder, the Kd is a measure of binding affinity in units of concentration. Read a low Kd as a tighter complex. As a reminder, the koff is the rate constant with which the complex falls apart. Low values mean slow dissociation, high ones fast dissociation. For orientation: kon means a measure of how fast the partners come together. A lower kon goes with slow association. Consider B1, for which the Ka was 6.24e+10 M⁻¹, the Kd stood at 0.016 nM, the koff amounted to 0.00117 s⁻¹ and the kon is 7.32e+07 M⁻¹ s⁻¹.

Regarding B2, the Ka amounted to 1.46e+10 M⁻¹, the Kd came out at 0.0685 nM, the off-rate constant (koff) came to 0.000232 s⁻¹ and the kon came out at 3.38e+06 M⁻¹ s⁻¹.

In turn, B3 yielded a Kd of 0.0403 nM, a koff of 0.000165 s⁻¹ and a kon of 4.1e+06 M⁻¹ s⁻¹.

Turning to B4, the Ka turned out to be 1.14e+10 M⁻¹, the Kd turned out to be 0.0878 nM, the koff was found to be 0.000261 s⁻¹ and the kon stood at 2.97e+06 M⁻¹ s⁻¹.

For the next experiment the target is unchanged. Description: SPR (Biacore 3000), construct captured, IL4 as analyte; summary table. The procedure:
as §1
For B1, the Kd worked out at 0.016 nM.

On to B2, for which the Kd worked out at 0.0685 nM.

The molecule B3 showed a Kd of 0.0403 nM.

For B4, the Kd was determined as 0.0878 nM. This Kd is about 2.2-fold higher than that of the molecule before.
